Test results from the nanobody polyreactivity screen of Harvey et al. (2022).

Assay: yeast display, Sf9 membrane polyspecificity reagent, FACS + sequencing; frameworks hold sequencing errors
In short: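 Galactose induction of a Saccharomyces cerevisiae BJ5465 synthetic nanobody display library ran 36–48 hours. The cells were then stained for 1 hour at 4 °C with 10% biotinylated, detergent-solubilized Sf9 membrane reagent, pulled down on streptavidin microbeads and FACS-sorted into low and high (top ~1%) gates on expression and reagent-binding fluorescence. Labels for polyreactivity follow the gate of origin.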

Row | Sequence | polyreactivity (PSR sort gate)
1 | QVQLVESGGGLVQAGGSLRLSCAASGLIFGWYAMGWSRQAPGKEREFVASIRYGGGSTYYADSVKGRFTISRDYAKNTVYLQMNSLKPEDTAVYYCAADRYPWHLQYVEYDSDYWGQGTQVTVSS | low polyreactivity
2 | QVQLVESGGGLVQAGGSLSLSCAASGRTFANYAMGWYRHAPGKETEFVAVITYSGGNTYYADSVKGRFTISRDNAKNTVYLQMNSLKPEDTAVYYCAKGRPYRNGLYYYWGQGTQVTVSS | high polyreactivity
3 | QVQLEESAGGLVQAGGSLRLSCAASGFTFRRYARGWYRQAPGKERELVAAISSRGGSTYYADSVKGRFTISRDNAKNTGYLQMKSLKPEDTAVYYCNRDAWGGTDLLGYNYWGHGTQVTVSS | high polyreactivity
4 | QVQLLESGGGLVQAGGSLRLSCAASGSTLNVYGMGWYRQAPGQERELVAAINRDGITYADSVKGRCTISRDNAKNTVYLQMNSLKPEDTAVYYCAGDPYDNSVPGWRRNMDYWGQGTQVTVSS | low polyreactivity
5 | QVQLVESGGGLVQAGGSLRLSCAASGRTFVYNAMGWYRQAPGKERELVAAITTSGASTYYADSVKGRFTISRDNAKNTVYLQMNSLKPEDTAVYYCNAYSRYSYGRTYGYWGQGTQVTVSS | high polyreactivity
6 | QVQLVESGGGLGQAGGRLRLSCAASGRTFAQNAMGWNRKAPGKERELVAAITSSGGSTYYADSVKGRFTISRDNAKNTVYLQMNSLKPEDTAVYYCAADRHYGTEYAYDYWGQGTQVTVSS | low polyreactivity
7 | QVHIVESGGGLVQAAGSLRLSCAASGSTLAIYDMGWYRQAPGKERELVAAISGGGSTYADSVKGRFTISPDNAKNTVYLHMNSLKTEDTAVYYFNADGWGDLFWSNFRFDYWVQGTQVTVSS | low polyreactivity
8 | HVQLVESGGGLVQAGGSLRLSCAASGSTFGSYALGWYRQAPGKERELVADISSRGASTYNADSVKGRFTISRDNAKNTVYLQMNSLKPEDTAVSYCATDKLYGRTVRMDYWGQGTQVTVSS | low polyreactivity
9 | QVQLVESGGGLVQAGGSLRLSCAASGRTFGLYAMGWYRQAPGKVRELVAAISWGGGRTYYADSVKGRFSISRDNAKNSVYLQMNSLKPEDTAVYYCNAVYSPRDYVGGYDYWGQGTQVTVSS | high polyreactivity
10 | QVQLVESGGGLVQAGGSLRLSCAASGSTFRHYAMGLYRQAPGKERELVAAISSTGGSTYYADSVKGRFTISRDNAKNTVYLQMNSLKPEDTAVYYCAASPYGFRRNYYWGQGTQVTVSS | high polyreactivity
11 | QVQLVESGGGLVQAGGSLRLSCAASGSIFGYYTMGWYRQAPGKERELVAAISSSGGRTYYADSVKGRFTISRDNAKNTVYLQLNSLKPEDTAVYYCAAVPIKRGLILGDRGYNYWGQGTQVTVSS | high polyreactivity
12 | QVQLVESGGGLVQAGGSLRLSCAASGFTFRSYAMGWYRQAPGKERELVAAITSTGGRTYYADSVKGRFTISRDTAKNTVYLQMNSLKPEDTAVYYCAAGRKHYAPVHFGYWGQGTQVTVSS | high polyreactivity
13 | QVQLVESGGGLFQAGGSLRVSCAASGITFRDNGMVWYRQAPGKERELVAAITSGGSTYYADSVKGSCTISRDHAKNTVYFQMNSLKPEDTAVYLCAAKRIKRRGWRQLSWYDSWGQGTQVTVSS | high polyreactivity
14 | QDQLVESGGGLVQAGGSLRLSCAASGSTLEYKAIGRYRQAPGQERELVAVINRSDGSTYYADSVKGRFTISRDNAKNTVYLQMNSLKPEDTEVYYCADDRHQVSGISTEDYWGQGTQVTVSS | low polyreactivity
15 | QVQLVESGGGLVQAGGSLRLSCAASGSIFPIYAMGWYRQAPRKERELVAAISGSGARTYYADSVKGRFTISRDNAKNTVYLQMNSLKPEDTAVYYCNAKYGYDSEARIVKPVRYDYWGQGTQVTVSS | high polyreactivity
16 | QVQLVESGGGLVQAGGSLRLSFAASGRTFGEYTMGWYRQATGKERELVAAISSAGRTNYADSVKGRFTISRDNAKNTVYLQMNSLKPEDTAVYYCAADWTDDVPGYDYWGQGTQVTVSS | low polyreactivity
17 | QVQLLESGGGLVQAGGSLRLSCAASGWYRQAPGKERELVAAITYSGGSTYYADSVKGRFTISRDNAKNTVYLQMNSLKPEDTAVYYCAVATGLLYKSHGYWGQGTQVTVSS | low polyreactivity
18 | QVQLVESGGGLVQAGGSLRLSCAASGIIFYEYTMGWYRQAPGKERELVARISLRGGNTYYADSVKGRFTISRDNAKNTVYLQMNSLKPEDTAVYYCNADLYRQYASRYHYWGQGTQVTVSS | high polyreactivity
19 | QDQLVESGGGLDQAGGSLRLSCAASGNIFYSYAMGCYRQAPGKERELVAAISSSGGRTYYADSVKGRFTISRDNAKNTVYLQMNSLKPEDTELYYCNAYVQVMRYLFGRPTVYPYDYWGQGTQVTVSS | high polyreactivity
20 | QVQIVESGAGLVQAGGSLRLSCAASGIIFPRYAMGWYRQAPGKERELVAAITIGGRTNYGDSVKGRFTISRDNGKNTFYLQMKSLKPEDTAVYYCAAQTFVPYSEYDYWGQGTQVTVSS | low polyreactivity
21 | QVQLVESGGGLVQAGGSLRLSCAASGSTFTANAMGWYRQAPGTERELVAAISRSGGSTYYADSVKGRFTISRDNAKYTVYLQLNSLKPEDTAVYYCAAECPLFSPPDGEDYWGQGTLVTVSS | low polyreactivity
